# Measurements: publication PMC2756588
# T1: Lsb4, P32793
# T1 sequence (P32793 402-468, looked up): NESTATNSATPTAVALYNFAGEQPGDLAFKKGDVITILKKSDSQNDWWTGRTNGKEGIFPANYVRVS
# T2: Lsb1, P53281
# T2 sequence (P53281 45-122, looked up): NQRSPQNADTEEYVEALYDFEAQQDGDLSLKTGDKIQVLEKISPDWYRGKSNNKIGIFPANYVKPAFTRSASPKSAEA
# T3: Bzz1-1, P38822
# T3 sequence (P38822 478-572, looked up): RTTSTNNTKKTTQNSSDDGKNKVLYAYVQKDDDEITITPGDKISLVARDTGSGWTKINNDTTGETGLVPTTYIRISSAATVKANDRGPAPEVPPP
# T4: Nbp2, Q12163
# T4 sequence (Q12163 103-180, looked up): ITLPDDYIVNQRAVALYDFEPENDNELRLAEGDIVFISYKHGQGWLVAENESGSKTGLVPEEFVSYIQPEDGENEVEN
# T5: Sla1-2, P32790
# T5 sequence (P32790 60-140, looked up): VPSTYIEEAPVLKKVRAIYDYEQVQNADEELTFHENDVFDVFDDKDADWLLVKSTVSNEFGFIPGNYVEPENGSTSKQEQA
# T6: Bud14, P27637
# T6 sequence (P27637 247-328, looked up): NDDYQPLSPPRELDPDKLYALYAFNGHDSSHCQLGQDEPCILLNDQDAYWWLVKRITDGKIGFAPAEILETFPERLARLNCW
# T7: Pex13, P80667
# T7 sequence (P80667 295-386, looked up): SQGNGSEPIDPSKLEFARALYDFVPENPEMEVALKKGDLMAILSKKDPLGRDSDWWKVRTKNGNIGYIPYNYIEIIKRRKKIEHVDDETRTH
# T8: Boi2, P39969
# T8 sequence (P39969 32-116, looked up): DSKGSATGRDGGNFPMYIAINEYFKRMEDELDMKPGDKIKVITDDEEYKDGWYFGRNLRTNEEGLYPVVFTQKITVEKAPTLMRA
# T9: Bbc1, P47068
# T9 sequence (P47068 1-78, looked up): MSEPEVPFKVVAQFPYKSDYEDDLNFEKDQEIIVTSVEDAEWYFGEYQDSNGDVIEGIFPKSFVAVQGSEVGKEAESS
# T10: Cdc25, P04821
# T10 sequence (P04821 50-136, looked up): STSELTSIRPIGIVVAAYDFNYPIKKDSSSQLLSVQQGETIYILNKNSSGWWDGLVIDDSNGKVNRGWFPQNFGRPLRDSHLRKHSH
# T11: Abp1, P15891
# T11 sequence (P15891 535-592, looked up): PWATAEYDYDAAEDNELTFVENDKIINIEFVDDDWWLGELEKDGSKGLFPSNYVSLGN
# T12: Myo5, Q04439
# T12 sequence (Q04439 1072-1160, looked up): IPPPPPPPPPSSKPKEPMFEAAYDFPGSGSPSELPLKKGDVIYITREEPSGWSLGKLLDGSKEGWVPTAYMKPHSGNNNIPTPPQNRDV
# T13: Bzz1-2, P38822
# T13 sequence (P38822 568-633, looked up): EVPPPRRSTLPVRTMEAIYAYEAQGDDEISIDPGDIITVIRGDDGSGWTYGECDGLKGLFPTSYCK
# T14: Lsb3, P43603
# T14 sequence (P43603 385-451, looked up): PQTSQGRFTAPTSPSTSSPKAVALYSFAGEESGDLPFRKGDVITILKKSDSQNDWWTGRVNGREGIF
# T15: Cyk3, Q07533
# T15 sequence (Q07533 1-83, looked up): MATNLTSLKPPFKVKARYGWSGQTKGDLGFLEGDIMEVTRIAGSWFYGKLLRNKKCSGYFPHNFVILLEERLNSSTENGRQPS
# T16: Boi1, P38041
# T16 sequence (P38041 1-86, looked up): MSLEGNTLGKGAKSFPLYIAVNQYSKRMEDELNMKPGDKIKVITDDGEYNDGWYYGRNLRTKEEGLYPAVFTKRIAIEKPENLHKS
# T17: Hse1, P38753
# T17 sequence (P38753 208-285, looked up): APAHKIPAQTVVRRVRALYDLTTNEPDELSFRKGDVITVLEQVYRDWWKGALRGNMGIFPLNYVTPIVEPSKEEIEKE
# T18: Sla1-3, P32790
# T18 sequence (P32790 344-424, looked up): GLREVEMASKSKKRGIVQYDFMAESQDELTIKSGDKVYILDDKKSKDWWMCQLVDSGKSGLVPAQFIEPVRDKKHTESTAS
# T19: Fus1, P11710
# T19 sequence (P11710 432-512, looked up): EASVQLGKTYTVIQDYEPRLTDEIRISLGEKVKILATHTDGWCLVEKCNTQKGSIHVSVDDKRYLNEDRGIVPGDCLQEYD
# T20: Hof1, Q05080
# T20 sequence (Q05080 590-669, looked up): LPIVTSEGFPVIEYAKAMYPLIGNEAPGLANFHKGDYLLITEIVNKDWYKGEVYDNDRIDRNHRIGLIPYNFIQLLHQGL
# T21: Pin3, Q06449
# T21 sequence (Q06449 53-122, looked up): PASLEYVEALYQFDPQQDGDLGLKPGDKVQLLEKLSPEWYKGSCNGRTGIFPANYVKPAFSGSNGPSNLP
# Biological target: Rvs167, P39743
# Sequence (P39743 419-482): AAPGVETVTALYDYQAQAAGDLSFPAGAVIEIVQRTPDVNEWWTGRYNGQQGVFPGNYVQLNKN
# Experiment: SPOT array
# Conditions: median of control spots 2707
row,SPOT intensity,Binder
1,2,RRARRQMGIPTISQV
2,0,NGRRRPKFRVQLSGN
3,0,KRNRLKILLPFLEQS

# Biological target: T1, Lsb4, P32793
# Experiment: SPOT array
# Conditions: median of control spots 397
row,SPOT intensity,Binder
1,16,RRARRQMGIPTISQV
2,9,NGRRRPKFRVQLSGN
3,0,KRNRLKILLPFLEQS

# Biological target: T2, Lsb1, P53281
# Experiment: SPOT array
# Conditions: median of control spots 388
row,SPOT intensity,Binder
1,35,RRARRQMGIPTISQV
2,114,NGRRRPKFRVQLSGN
3,34,KRNRLKILLPFLEQS

# Biological target: Bem1-2, P29366
# Sequence (P29366 139-227): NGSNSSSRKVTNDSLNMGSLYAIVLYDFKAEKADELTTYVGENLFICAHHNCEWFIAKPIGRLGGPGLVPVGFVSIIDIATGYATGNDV
# Experiment: SPOT array
# Conditions: median of control spots 4347
row,SPOT intensity,Binder
1,12,RRARRQMGIPTISQV
2,6,NGRRRPKFRVQLSGN
3,0,KRNRLKILLPFLEQS

# Biological target: T3, Bzz1-1, P38822
# Experiment: SPOT array
# Conditions: median of control spots 4446
row,SPOT intensity,Binder
1,2,RRARRQMGIPTISQV
2,1,NGRRRPKFRVQLSGN
3,0,KRNRLKILLPFLEQS

# Biological target: T4, Nbp2, Q12163
# Experiment: SPOT array
# Conditions: median of control spots 357
row,SPOT intensity,Binder
1,2,RRARRQMGIPTISQV
2,63,NGRRRPKFRVQLSGN
3,22,KRNRLKILLPFLEQS

# Biological target: T5, Sla1-2, P32790
# Experiment: SPOT array
# Conditions: median of control spots 712
row,SPOT intensity,Binder
1,15,RRARRQMGIPTISQV
2,5,NGRRRPKFRVQLSGN
3,0,KRNRLKILLPFLEQS

# Biological target: Sho1, P40073
# Sequence (P40073 287-367): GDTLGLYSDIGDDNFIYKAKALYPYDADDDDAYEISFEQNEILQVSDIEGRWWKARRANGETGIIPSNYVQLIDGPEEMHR
# Experiment: SPOT array
# Conditions: median of control spots 1148
row,SPOT intensity,Binder
1,79,RRARRQMGIPTISQV
2,155,NGRRRPKFRVQLSGN
3,81,KRNRLKILLPFLEQS

# Biological target: T6, Bud14, P27637
# Experiment: SPOT array
# Conditions: median of control spots 956
row,SPOT intensity,Binder
1,41,RRARRQMGIPTISQV
2,23,NGRRRPKFRVQLSGN
3,8,KRNRLKILLPFLEQS

# Biological target: T7, Pex13, P80667
# Experiment: SPOT array
# Conditions: median of control spots 1341
row,SPOT intensity,Binder
1,19,RRARRQMGIPTISQV
2,5,NGRRRPKFRVQLSGN
3,11,KRNRLKILLPFLEQS

# Biological target: Myo3, P36006
# Experiment: SPOT array
# Conditions: median of control spots 468
row,SPOT intensity,Binder
1,10,RRARRQMGIPTISQV
2,30,NGRRRPKFRVQLSGN
3,10,KRNRLKILLPFLEQS

# Biological target: T8, Boi2, P39969
# Experiment: SPOT array
# Conditions: median of control spots 1161
row,SPOT intensity,Binder
1,1,RRARRQMGIPTISQV
2,5,NGRRRPKFRVQLSGN
3,3,KRNRLKILLPFLEQS

# Biological target: T9, Bbc1, P47068
# Experiment: SPOT array
# Conditions: median of control spots 796
row,SPOT intensity,Binder
1,58,RRARRQMGIPTISQV
2,227,NGRRRPKFRVQLSGN
3,46,KRNRLKILLPFLEQS

# Biological target: T10, Cdc25, P04821
# Experiment: SPOT array
# Conditions: median of control spots 969
row,SPOT intensity,Binder
1,120,RRARRQMGIPTISQV
2,87,NGRRRPKFRVQLSGN
3,28,KRNRLKILLPFLEQS

# Biological target: T11, Abp1, P15891
# Experiment: SPOT array
# Conditions: median of control spots 935
row,SPOT intensity,Binder
1,95,RRARRQMGIPTISQV
2,209,NGRRRPKFRVQLSGN
3,64,KRNRLKILLPFLEQS

# Biological target: T12, Myo5, Q04439
# Experiment: SPOT array
# Conditions: median of control spots 471
row,SPOT intensity,Binder
1,20,RRARRQMGIPTISQV
2,2,NGRRRPKFRVQLSGN
3,0,KRNRLKILLPFLEQS

# Biological target: T13, Bzz1-2, P38822
# Experiment: SPOT array
# Conditions: median of control spots 4538
row,SPOT intensity,Binder
1,25,RRARRQMGIPTISQV
2,0,NGRRRPKFRVQLSGN
3,0,KRNRLKILLPFLEQS

# Biological target: T14, Lsb3, P43603
# Experiment: SPOT array
# Conditions: median of control spots 406
row,SPOT intensity,Binder
1,6,RRARRQMGIPTISQV
2,8,NGRRRPKFRVQLSGN
3,2,KRNRLKILLPFLEQS

# Biological target: T15, Cyk3, Q07533
# Experiment: SPOT array
# Conditions: median of control spots 1451
row,SPOT intensity,Binder
1,2,RRARRQMGIPTISQV
2,8,NGRRRPKFRVQLSGN
3,14,KRNRLKILLPFLEQS

# Biological target: T16, Boi1, P38041
# Experiment: SPOT array
# Conditions: median of control spots 1162
row,SPOT intensity,Binder
1,3,RRARRQMGIPTISQV
2,16,NGRRRPKFRVQLSGN
3,9,KRNRLKILLPFLEQS

# Biological target: T17, Hse1, P38753
# Experiment: SPOT array
# Conditions: median of control spots 1727
row,SPOT intensity,Binder
1,11,RRARRQMGIPTISQV
2,53,NGRRRPKFRVQLSGN
3,25,KRNRLKILLPFLEQS

# Biological target: Bem1-1, P29366
# Sequence (P29366 55-141): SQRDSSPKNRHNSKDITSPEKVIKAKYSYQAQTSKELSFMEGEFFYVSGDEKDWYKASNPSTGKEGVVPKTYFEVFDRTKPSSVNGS
# Experiment: SPOT array
# Conditions: median of control spots 4282
row,SPOT intensity,Binder
1,3,RRARRQMGIPTISQV
2,0,NGRRRPKFRVQLSGN
3,0,KRNRLKILLPFLEQS

# Biological target: T18, Sla1-3, P32790
# Experiment: SPOT array
# Conditions: median of control spots 5475
row,SPOT intensity,Binder
1,14,RRARRQMGIPTISQV
2,221,NGRRRPKFRVQLSGN
3,49,KRNRLKILLPFLEQS

# Biological target: GST
# Experiment: SPOT array
# Conditions: median of control spots 978
row,SPOT intensity,Binder
1,7,RRARRQMGIPTISQV
2,3,NGRRRPKFRVQLSGN
3,5,KRNRLKILLPFLEQS

# Biological target: T19, Fus1, P11710
# Experiment: SPOT array
# Conditions: median of control spots 1200
row,SPOT intensity,Binder
1,1,RRARRQMGIPTISQV
2,75,NGRRRPKFRVQLSGN
3,169,KRNRLKILLPFLEQS

# Biological target: T20, Hof1, Q05080
# Experiment: SPOT array
# Conditions: median of control spots 4086
row,SPOT intensity,Binder
1,3,RRARRQMGIPTISQV
2,24,NGRRRPKFRVQLSGN
3,6,KRNRLKILLPFLEQS

# Biological target: T21, Pin3, Q06449
# Experiment: SPOT array
# Conditions: median of control spots 2171
row,SPOT intensity,Binder
1,33,RRARRQMGIPTISQV
2,11,NGRRRPKFRVQLSGN
3,17,KRNRLKILLPFLEQS
